The results in this text go back to paper PMC4065332, “PEX14 binding to Arabidopsis PEX5 has differential effects on PTS1 and PTS2 cargo occupancy of the receptor” (Febs Letters, 2014).

Where no end group is shown, it is not given here. lissamine = lissamine: fluorescent label (lissamine) on the peptide

Details in all cases: both partners purified
Test [1] concerns the target T1, PEX5 (340–728), termed PEX5C (Arabidopsis thaliana, UniProt Q9FMA3 340-728).
T1 construct: Arabidopsis PEX5 residues 340-728; holds six of the nine W-X3-F/Y motifs and the TPR domain; lacks residues 314-334; also called His6-PEX5C; AtPEX5C; source: E. coli, purified via IMAC
T1 sequence (looked up): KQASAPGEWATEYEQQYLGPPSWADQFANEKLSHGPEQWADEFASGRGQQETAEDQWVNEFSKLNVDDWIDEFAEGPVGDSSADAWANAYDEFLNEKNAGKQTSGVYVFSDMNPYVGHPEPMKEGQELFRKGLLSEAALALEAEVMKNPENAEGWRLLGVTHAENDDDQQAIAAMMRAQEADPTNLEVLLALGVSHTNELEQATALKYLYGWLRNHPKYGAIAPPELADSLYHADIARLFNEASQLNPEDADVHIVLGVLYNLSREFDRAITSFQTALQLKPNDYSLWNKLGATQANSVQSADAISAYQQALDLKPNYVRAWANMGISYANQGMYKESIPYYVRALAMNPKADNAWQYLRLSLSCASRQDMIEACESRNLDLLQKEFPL
Briefly: fluorescence polarisation; fluorescence anisotropy; dilution series of PEX5C (1 μM–0.04 nM) with lissamine-YQSKL (100 nM); HEPES 20 mM, NaCl 150 mM, pH 7.5; fitted to a 1:1 binding model; without PEX14N. A general note: In fluorescence polarisation assays a small probe gives low polarisation when free and higher when bound to something large.

Test [2] deals with T1, PEX5 (340–728), termed PEX5C. Briefly: fluorescence polarisation; fluorescence anisotropy; the same dilution series of PEX5C with lissamine-YQSKL (100 nM) after addition of PEX14N to a constant 1 μM; HEPES 20 mM, NaCl 150 mM, pH 7.5.
Test [3] shares this target. Briefly: far-Western, overlay or dot blot; purified PEX5 constructs pipetted onto nitrocellulose, blocked in 3% BSA PBS-T, probed 1 h with peptide-HRP (200 nM) or PEX14N-HRP (50 nM), ECL; for unloading then incubated with PEX14N 0.2 μM 1 h and 2 μM 16 h at 4 °C.

B1: lissamine-YQSKL (peptide)
peptide: lissamine-YQSKL
notes: canonical PTS1 cargo peptide; The name puts the lissamine before the peptide; also called lissamine-PTS1; PTS1
Regarding B1, the results for the Kd in test [1] and in test [2] were 8.6 ± 4 nM and 11.5 ± 3.4 nM, respectively.

B2: HRP–YQSKL (CGGGYQSKL coupled to HRP–maleimide) (peptide)
peptide: C(HRP‑maleimide)GGGYQSKL
notes: generic PTS1 cargo peptide; also called HRP-SKL; peptide-HRP; source: synthetic peptide, coupled to HRP-maleimide (Sigma)
Take B2: in test [3], the binding result is “binds”.

For orientation: Kd means the free concentration of one partner at which half of the binding sites on the other are occupied at equilibrium, for simple one-to-one binding. Read a low Kd as higher affinity.
